Results on 13 proteins are retold here after patent US20250027068.

To fix the notation:
B1: PRT-516 (protein)
chain: MITSVWTKGVTPPTDFIKGEDVFHAPYKAGQGWYDITKAFDGGDDLLCGAATAGNMLHWWFDQNKEEIEAYLKKHPEKQKIMFGDQELLDVRKVINTKDSQTNSALFNYFKDKAFPNLSARRLGVMPDLVLDMFINGYYLNVYKTQTTDVNRTYQTKDRRGGIFDAVFTRGDQSKLLTERHDLKNKTLNEISQLIKQELTEGKALGLSHTYANVRINHVINLWGADFDAEGNLEAIYVTDSDSNASIGMKKYFVGVNSAGKVAISAKEIKEDNIGAQVLGLFTLSTGQDIWNQTNLEHHHHHH
B2: PRT-687 (protein)
chain: MQITSVWTKGVTPLTPEQFRYNNEDVIHAPYKPHQGWYDITKTFNGKDNLLCGAATAGNMLHWWFDQNKTEIEAYLKKYPEKQKIIFNNQKLFDLRKAINTKDSQTNSALFNYFRDKAFPNLSARQLGVMPDLVLDMFINGYYLNVFKTQSTDVNRPYQTRDKRGGIFDHVFGRGDQTTLLTARHDLKNKTLNEISQIIKQELSEGKALALSHTYANVSISHVINLWGADFNAEGNLEAIYVTDSDANAKIGMKKYYVGKNAHGKVAISAKKIEGENIGAQVLGLFTLSSGKDIWQKLSLEHHHHHH
B3: PRT-495 (protein)
chain: MVTSVWTKGVTPPTDFIKGEDVFHAPYKAGQGWYDITKAFDGGDDLLCGAATAGNMLHWWFDQNKEYIEAYLKKHPEKQKIMFGDQELLDVRKAINTKGSQKNSELFNYFRDKAFPNLSARRLGVMPDLVLDMFINGYYLNVTKTQTTDVNRTYQEKDKRGGIFDAVFTRGDQSKLLTSRHDFKEKGLKEISDLIKQELTEGKALGLSHTYANVRINHVINLWGADFDSDGNLKAIYVTDSDSNASIGMKKYFVGVNSAGKVAISAKEIKEDNIGAQVLGLFTLSTGQDIWNQTNLEHHHHHH
B4: PRT-643 (protein)
chain: MQITSVWTKGVTPLTPEQFRYNNEDVIHAPYLAHQGWYDITKAFDGKDNLLCGAATAGNMLHWWFDQNKTEIEAYLSKHPEKQKIIFNNQELFDLKAAIDTKDSQTNSQLFNYFRDKAFPNLSARQLGVMPDLVLDMFINGYYLNVFKTQSTDVNRPYQDKDKRGGIFDAVFTRGDQTTLLTARHDLKNKGLNDISTIIKQELTEGRALALSHTYANVSISHVINLWGADFNAEGNLEAIYVTDSDANASIGMKKYKVGYNKDGRVAISAYKIEGENIGAQVLGLFTLSSGKDIWQKLSLEHHHHHH
B5: PRT-469 (protein)
chain: MVTSVWTKGVTPPTDFIKGEDVFHAPYKAGQGWYDITKAFDGGDDLLCGAATAGNMLHWWFDQNKDQIERYLKEHPEKQKINFNGEQMFDVKEAIDTKDSQTNSELFNYFKEKAFPYLSTKHLGVFPDHVLDMFINGYRLSLTNHGPTPVKRQEKDPRGGIFDAVFGRGDQTKLLTSRHDLKNKTLKEISDLIKQELTEGKALGLSHTYANVRINHVINLWGADFDSEGNLKAIYVTDSDSNASIGMKKYFVGVNSAGKVAISAKEIKEDNIGAQVLGLFTLSTGQKIWNKTNLEHHHHHH
B6: PRT-475 (protein)
chain: MVTSVWTKGVTPPTNFRKIVDGNIAYYHAPYVANQGWYDITKTFNGKDDLLCGAATAGNMLHWWFDQNKEQIENYLKKHPEKQKINFNGEQMFDVKEAIDTKDSQLDSKLFEYFKEKAFPYLSTKHLGVFPDHVIDMFINGYRLSLTNHGPTPVKRGSKDPRGGIFDAVFTRGDQSKLLTNRHDLKNKTLKEISDLIKQELTEGKALGISHTYANVRINHVINLWGADFDAEGNLEAIYVTDSDSNASIGMKKYFVGVNSNGKVAISAKEIEEDNIGAQVLGLFTLSTGQDIWNQTNLEHHHHHH
B7: PRT-624 (protein)
chain: MQITSVWTKGVTPLTPEQFRYNNEDVIHAPYLAHQGWYDITKAFDGKDNLLCGAATAGNMLHWWFDQNKTEIEAYLSKHPEKQKIIFNNQELFDLKAAIDTKDSQTNSQLFNYFRDKAFPNLSARQLGVMPDLVLDMFINGYYLNVFKTQSTDVNRDYDDKDKRGGIFDDVFGKGDQTTLLTARHDLKNKGLNDISTIIKQELTEGRALALSHTYANVSISHVINLWGADFNAEGNLEAIYVTDSDANASIGMKKYFVGINAHGHVAISAKKIEGENIGAQVLGLFTLSSGKDIWQKLSLEHHHHHH
B8: PRT-646 (protein)
chain: MQITSVWTKGVTPLTPEQFRYNNEDVIHAPYLAHQGWYDITKAFDGKDNLLCGAATAGNMLHWWFDQNKTEIEAYLSKHPEKQKIIFNNQELFDLKAAIDTKDSQTNSQLFNYFRDKAFPNLSARQLGVMPDLVLDMFINGYYLNVFKTQSTDVNRPYQDKDKRGGIFDAVFTRGDQTTLLTETTDLYGKGLNDISTIIKQELTEGRALALSHTYANVSISHVINLWGADFNAEGNLEAIYVTDSDANASIGMKKYFVGINAHGHVAISAKKIEGENIGAQVLGLFTLSSGKDIWQKLSLEHHHHHH
B9: PRT-658 (protein)
chain: MQITSVWTKGVTPLTPEQFRYNNEDVIHAPYLAHQGWYDITKAFDGKDNLLCGAATAGNMLHWWFDQNKTEIEAYLSKHPEKQKIIFNNQELFDLRKAINTKDSQTNSALFNYFRDKAFPNLSARQLGVMPDLVLDMFINGYYLNVFKTQSTDVNRPYQDKDKRGGIFDAVFTRGDQTTLLTARHDLKNKGLNDISTIIKQELTEGRALALSHTYANVSISHVINLWGADFNAEGNLEAIYVTDSDANASIGMKKYFVGINAHGHVAISAKKIEGENIGAQVLGLFTLSSGKDIWQKLSLEHHHHHH
B10: PRT-635 (protein)
chain: MQITSVWTKGVTPLTPDQFTNQGEDVIHAPYTPNQGWYDITKAFDGKDNLLCGAATAGNMLHWWFDQNKTEIEAYLSKHPEKQKIIFNNQELFDLKAAIDTKDSQTNSQLFNYFRDKAFPNLSARQLGVMPDLVLDMFINGYYLNVFKTQSTDVNRPYQDKDKRGGIFDAVFTRGDQTTLLTARHDLKNKGLNDISTIIKQELTEGKALALSHTYANVSISHVINLWGADFNAEGNLEAIYVTDSDANASIGMKKYFVGINAHGHVAISAKKIEGENIGAQVLGLFTLSSGKDIWQKLSLEHHHHHH
B11: PRT-497 (protein)
chain: MVTSVWTKGVTPPTDFRKIVDGNIAYYHAPYKAGQGWYDITKTFNGKDDLLCGAATAGNMLHWWFDQNKEYIEAYLKKHPEKQKIMFGDQELLDVRKAINTKGSQKNSELFNYFRDKAFPNLSARRLGVMPDLVLDMFINGYYLNVTKTQTTDVNRTYQEKDKRGGIFDAVFTRGDQSKLLTSRHDFKEKGLKEISDLIKQELTEGKALGLSHTYANVRINHVINLWGADFDSDGNLKAIYVTDSDSNASIGMKKYFVGVNSAGKVAISAKEIKEDNIGAQVLGLFTLSTGQDIWNQTNLEHHHHHH
B12: PRT-461 (protein)
chain: MVTSVWTKGVTPPTDFRKIVDGNIAYYHAPYKAGQGWYDITKTFNGKDDLLCGAATAGNMLHWWFDQNKDQIERYLKEHPEKQKINFNGEQMFDVKEAIDTKDSQTDSKLFEYFKEKAFPYLSTKHLGVFPDHVLDMFINGYRLSLTNHGPTPVKEGSKDPRGGIFDAVFTRGDQSKLLTSRHDFKEKTLKEISDLIKQELTEGKALGLSHTYANVRINHVINLWGADFDSEGNLKAIYVTDSDSNASIGMKKYFVGVNSAGKVAISAKEIKEDNIGAQVLGLFTLSTGQDIWNQTNLEHHHHHH
B13: PRT-509 (protein)
chain: MITSVWTKGVTPPTDFRKIVDGNIAYYHAPYKAGQGWYDITKTFNGKDDLLCGAATAGNMLHWWFDQNKEEIEAYLKKHPEKQKIMFGDQELLDVRKVINTKDSQTNSALFNYFKDKAFPNLSARRLGVMPDLVLDMFINGYYLNVYKTQTTDVNRTYQTKDRRGGIFDAVFTRGDQSKLLTERHDFKEKTLKEISDLIKQELTEGKALGLSHTYANVRINHVINLWGADFDSNGNLEAIYVTDSDSNASIGMKKYFVGVNSAGKVAISAKEIKEDNIGAQVLGLFTLSTGQDIWNQTNLEHHHHHH

This data set has as its target pooled human IgG (human IgG1, 2, 3 and 4).
In turn, B1 returned an Enzyme Activity Endpoint Assay (purified): Fab′2 of 16 ng/µL, an Enzyme Activity Endpoint Assay (purified): Fc of 23 ng/µL, an Enzyme Activity Endpoint Assay (purified): IgG of 0 ng/µL and an Enzyme Activity Endpoint Assay (purified): scIgG of 0 ng/µL.
The protein B2 registered an Enzyme Activity Endpoint Assay (purified): Fab′2 of 738 ng/µL, an Enzyme Activity Endpoint Assay (purified): Fc of 420 ng/µL, an Enzyme Activity Endpoint Assay (purified): IgG of 0 ng/µL and an Enzyme Activity Endpoint Assay (purified): scIgG of 295 ng/µL.
B3 displayed an Enzyme Activity Endpoint Assay (purified): Fab′2 of 0 ng/µL, an Enzyme Activity Endpoint Assay (purified): Fc of 37 ng/µL, an Enzyme Activity Endpoint Assay (purified): IgG of 0 ng/µL and an Enzyme Activity Endpoint Assay (purified): scIgG of 0 ng/µL.
In the case of B4, the Enzyme Activity Endpoint Assay (purified): Fab′2 was 664 ng/µL, the Enzyme Activity Endpoint Assay (purified): Fc was 409 ng/µL, the Enzyme Activity Endpoint Assay (purified): IgG stood at 33 ng/µL and the Enzyme Activity Endpoint Assay (purified): scIgG was 226 ng/µL.
Take B5: the Enzyme Activity Endpoint Assay (purified): Fab′2 was 41 ng/µL, the Enzyme Activity Endpoint Assay (purified): Fc worked out at 139 ng/µL, the Enzyme Activity Endpoint Assay (purified): IgG turned out to be 50 ng/µL and the Enzyme Activity Endpoint Assay (purified): scIgG is 248 ng/µL.
Protein B6 returned an Enzyme Activity Endpoint Assay (purified): Fab′2 of 1150 ng/µL, an Enzyme Activity Endpoint Assay (purified): Fc of 413 ng/µL, an Enzyme Activity Endpoint Assay (purified): IgG of 0 ng/µL and an Enzyme Activity Endpoint Assay (purified): scIgG of 0 ng/µL.
Regarding B7, the Enzyme Activity Endpoint Assay (purified): Fab′2 worked out at 89 ng/µL, the Enzyme Activity Endpoint Assay (purified): Fc came to 251 ng/µL, the Enzyme Activity Endpoint Assay (purified): IgG was determined as 96 ng/µL and the Enzyme Activity Endpoint Assay (purified): scIgG stood at 626 ng/µL.
Turning to B8, the Enzyme Activity Endpoint Assay (purified): Fab′2 turned out to be 582 ng/µL, the Enzyme Activity Endpoint Assay (purified): Fc is 435 ng/µL, the Enzyme Activity Endpoint Assay (purified): IgG turned out to be 39 ng/µL and the Enzyme Activity Endpoint Assay (purified): scIgG stood at 635 ng/µL.
The protein B9 returned an Enzyme Activity Endpoint Assay (purified): Fab′2 of 822 ng/µL, an Enzyme Activity Endpoint Assay (purified): Fc of 473 ng/µL, an Enzyme Activity Endpoint Assay (purified): IgG of 0 ng/µL and an Enzyme Activity Endpoint Assay (purified): scIgG of 317 ng/µL.
In turn, B10 displayed an Enzyme Activity Endpoint Assay (purified): Fab′2 of 0 ng/µL, an Enzyme Activity Endpoint Assay (purified): Fc of 0 ng/µL, an Enzyme Activity Endpoint Assay (purified): IgG of 0 ng/µL and an Enzyme Activity Endpoint Assay (purified): scIgG of 0 ng/µL.
Consider B11, for which the Enzyme Activity Endpoint Assay (purified): Fab′2 came out at 0 ng/µL, the Enzyme Activity Endpoint Assay (purified): Fc amounted to 0 ng/µL, the Enzyme Activity Endpoint Assay (purified): IgG stood at 0 ng/µL and the Enzyme Activity Endpoint Assay (purified): scIgG stood at 0 ng/µL.
Regarding B12, the Enzyme Activity Endpoint Assay (purified): Fab′2 was 399 ng/µL, the Enzyme Activity Endpoint Assay (purified): Fc amounted to 309 ng/µL, the Enzyme Activity Endpoint Assay (purified): IgG turned out to be 154 ng/µL and the Enzyme Activity Endpoint Assay (purified): scIgG was 298 ng/µL.
B13: the Enzyme Activity Endpoint Assay (purified): Fab′2 was 21 ng/µL, the Enzyme Activity Endpoint Assay (purified): Fc worked out at 26 ng/µL, the Enzyme Activity Endpoint Assay (purified): IgG was determined as 0 ng/µL and the Enzyme Activity Endpoint Assay (purified): scIgG is 0 ng/µL.
